This passage reports Tm results from the array DNA melting data of Ke et al..

This data set can be described thus: melting temperature; melt of duplexes. Particulars: sodium 0.0675 M; strand 1 µM.
By Tm is commonly meant the temperature at which the thermal transition is half complete. For “CGACGTGCCGTATGTGCTG+CAGCACATCAAGCACGTCG ((((((((...((((((((+))))))))...))))))))”, the Tm came out at 49.3 °C.
The same measure for “CGACGTGCTGAATGTGCTG+CAGCACATACTGCACGTCG ((((((((.(.((((((((+)))))))).).))))))))”: 53.7 °C.
The same measure for “CGACGTGCATTATGTGCTG+CAGCACATAAGGCACGTCG ((((((((.((((((((((+)))))))))).))))))))”: 56.7 °C.
To “CGACGTGCCCAATGTGCTG+CAGCACATTATGCACGTCG ((((((((..(((((((((+)))))))))..))))))))” belongs 50.1 °C; to “CGACGTGCAATATGTGCTG+CAGCACATAGTGCACGTCG (((((((((.(((((((((+))))))))).)))))))))”, 53.9 °C; to “CGACGTGCCAGATGTGCTG+CAGCACATCTTGCACGTCG ((((((((.((((((((((+)))))))))).))))))))”, 57 °C.
For the substance “CGACGTGCGATATGTGCTG+CAGCACATCACGCACGTCG (((((((((..((((((((+))))))))..)))))))))”, the Tm came to 53.7 °C.
To “CGACGTGCTTAATGTGCTG+CAGCACATAGGGCACGTCG ((((((((...((((((((+))))))))...))))))))” belongs 50 °C; to “CGACGTGCAGCATGTGCTG+CAGCACATATAGCACGTCG ((((((((...((((((((+))))))))...))))))))”, 46.3 °C; to “CGACGTGCGATATGTGCTG+CAGCACATAGAGCACGTCG ((((((((..(((((((((+)))))))))..))))))))”, 58.5 °C.
The same measure for “CGACGTGCGGGATGTGCTG+CAGCACATGCAGCACGTCG ((((((((.(.((((((((+)))))))).).))))))))”: 57.2 °C; for “CGACGTGCACAATGTGCTG+CAGCACATTTAGCACGTCG ((((((((..(((((((((+)))))))))..))))))))”: 48.3 °C.
Regarding “CGACGTGCCCCATGTGCTG+CAGCACATCCCGCACGTCG ((((((((...((((((((+))))))))...))))))))”, the Tm came out at 46.2 °C.
The same measure for “CGACGTGCATAATGTGCTG+CAGCACATGAGGCACGTCG ((((((((.(.((((((((+)))))))).).))))))))”: 53.2 °C; for “CGACGTGCTAAATGTGCTG+CAGCACATATGGCACGTCG ((((((((.(.((((((((+)))))))).).))))))))”: 52 °C.
In the case of “CGACGTGCAAGATGTGCTG+CAGCACATGATGCACGTCG (((((((((..((((((((+))))))))..)))))))))”, the Tm was determined as 52.3 °C.
Regarding “CGACGTGCACGATGTGCTG+CAGCACATCTAGCACGTCG ((((((((..(((((((((+)))))))))..))))))))”, the Tm was 51.3 °C.
To “CGACGTGCAGAATGTGCTG+CAGCACATTTCGCACGTCG ((((((((..(((((((((+)))))))))..))))))))” belongs 53.5 °C; to “CGACGTGCACAATGTGCTG+CAGCACATCCGGCACGTCG ((((((((...((((((((+))))))))...))))))))”, 46.1 °C; to “CGACGTGCAGTATGTGCTG+CAGCACATAGTGCACGTCG (((((((((.(((((((((+))))))))).)))))))))”, 55.1 °C.
In the case of “CGACGTGCACCATGTGCTG+CAGCACATGCAGCACGTCG ((((((((..(((((((((+)))))))))..))))))))”, the Tm turned out to be 50.4 °C.
The same measure for “CGACGTGCGTGATGTGCTG+CAGCACATTCGGCACGTCG ((((((((...((((((((+))))))))...))))))))”: 51.5 °C.
To “CGACGTGCGTTATGTGCTG+CAGCACATTGGGCACGTCG ((((((((...((((((((+))))))))...))))))))” belongs 50.3 °C; to “CGACGTGCTCAATGTGCTG+CAGCACATCCCGCACGTCG ((((((((...((((((((+))))))))...))))))))”, 48 °C.
The same measure for “CGACGTGCAGGATGTGCTG+CAGCACATTGAGCACGTCG ((((((((...((((((((+))))))))...))))))))”: 50.6 °C; for “CGACGTGCTGCATGTGCTG+CAGCACATACGGCACGTCG ((((((((.(.((((((((+)))))))).).))))))))”: 53.6 °C.
Regarding “CGACGTGCCGAATGTGCTG+CAGCACATTCCGCACGTCG ((((((((.((((((((((+)))))))))).))))))))”, the Tm was determined as 56 °C.
The same measure for “CGACGTGCCGGATGTGCTG+CAGCACATGTTGCACGTCG ((((((((...((((((((+))))))))...))))))))”: 48.1 °C; for “CGACGTGCGAGATGTGCTG+CAGCACATGTCGCACGTCG ((((((((((.((((((((+)))))))).))))))))))”: 60.6 °C; for “CGACGTGCTACATGTGCTG+CAGCACATGAGGCACGTCG ((((((((..(((((((((+)))))))))..))))))))”: 55.8 °C.
To “CGACGTGCGGGATGTGCTG+CAGCACATCGTGCACGTCG ((((((((..(((((((((+)))))))))..))))))))” belongs 56.2 °C.
Take “CGACGTGCTAGATGTGCTG+CAGCACATAGGGCACGTCG ((((((((...((((((((+))))))))...))))))))”: the Tm turned out to be 51.5 °C.
As to “CGACGTGCGAAATGTGCTG+CAGCACATCCTGCACGTCG ((((((((...((((((((+))))))))...))))))))”, the Tm is 49.5 °C.
To “CGACGTGCTAAATGTGCTG+CAGCACATCGCGCACGTCG ((((((((...((((((((+))))))))...))))))))” belongs 47.5 °C; to “CGACGTGCACCATGTGCTG+CAGCACATTCGGCACGTCG ((((((((...((((((((+))))))))...))))))))”, 42.6 °C.
The same measure for “CGACGTGCCGCATGTGCTG+CAGCACATCATGCACGTCG ((((((((...((((((((+))))))))...))))))))”: 48.6 °C.
The same measure for “CGACGTGCTGGATGTGCTG+CAGCACATCCTGCACGTCG ((((((((.((((((((((+)))))))))).))))))))”: 61.2 °C.
As for “CGACGTGCTTTATGTGCTG+CAGCACATCATGCACGTCG ((((((((.(.((((((((+)))))))).).))))))))”, the Tm amounted to 49.2 °C.
As to “CGACGTGCGACATGTGCTG+CAGCACATATTGCACGTCG ((((((((.(.((((((((+)))))))).).))))))))”, the melting temperature (Tm) stood at 51.5 °C.
To “CGACGTGCATTATGTGCTG+CAGCACATCCTGCACGTCG (((((((((..((((((((+))))))))..)))))))))” belongs 49.9 °C.
To “CGACGTGCAGAATGTGCTG+CAGCACATCAGGCACGTCG ((((((((...((((((((+))))))))...))))))))” belongs 51.1 °C.
To “CGACGTGCACCATGTGCTG+CAGCACATTTAGCACGTCG ((((((((...((((((((+))))))))...))))))))” belongs 42.2 °C; to “CGACGTGCACGATGTGCTG+CAGCACATCCAGCACGTCG ((((((((..(((((((((+)))))))))..))))))))”, 50.6 °C; to “CGACGTGCCGAATGTGCTG+CAGCACATGGAGCACGTCG ((((((((...((((((((+))))))))...))))))))”, 53.1 °C.
For “CGACGTGCGCGATGTGCTG+CAGCACATTAAGCACGTCG ((((((((...((((((((+))))))))...))))))))”, the Tm turned out to be 55 °C.
Turning to “CGACGTGCGGAATGTGCTG+CAGCACATAAAGCACGTCG ((((((((...((((((((+))))))))...))))))))”, the Tm stood at 55.5 °C.
To “CGACGTGCCGTATGTGCTG+CAGCACATTTCGCACGTCG ((((((((...((((((((+))))))))...))))))))” belongs 48.5 °C; to “CGACGTGCATCATGTGCTG+CAGCACATAGAGCACGTCG ((((((((...((((((((+))))))))...))))))))”, 50.1 °C.
With “CGACGTGCGTCATGTGCTG+CAGCACATCCGGCACGTCG ((((((((...((((((((+))))))))...))))))))”, the Tm came out at 48.7 °C.
“CGACGTGCTCCATGTGCTG+CAGCACATTCAGCACGTCG (((((((((..((((((((+))))))))..)))))))))”: the Tm amounted to 48.7 °C.
To “CGACGTGCGCAATGTGCTG+CAGCACATTTGGCACGTCG ((((((((..(((((((((+)))))))))..))))))))” belongs 52.5 °C; to “CGACGTGCGCTATGTGCTG+CAGCACATCCGGCACGTCG ((((((((...((((((((+))))))))...))))))))”, 48.1 °C; to “CGACGTGCCCTATGTGCTG+CAGCACATCGGGCACGTCG ((((((((((.((((((((+)))))))).))))))))))”, 58.7 °C.
To “CGACGTGCCTAATGTGCTG+CAGCACATCACGCACGTCG ((((((((.(.((((((((+)))))))).).))))))))” belongs 46.3 °C.
To “CGACGTGCAGAATGTGCTG+CAGCACATTCTGCACGTCG (((((((((((((((((((+)))))))))))))))))))” belongs 64.2 °C.
As for “CGACGTGCGAAATGTGCTG+CAGCACATCGCGCACGTCG (((((((((..((((((((+))))))))..)))))))))”, the Tm amounted to 53.8 °C.
Consider “CGACGTGCAACATGTGCTG+CAGCACATTACGCACGTCG ((((((((...((((((((+))))))))...))))))))”, for which the Tm came to 47.9 °C.
The same measure for “CGACGTGCCACATGTGCTG+CAGCACATGCGGCACGTCG (((((((((.(((((((((+))))))))).)))))))))”: 60.2 °C; for “CGACGTGCGAAATGTGCTG+CAGCACATGTCGCACGTCG ((((((((((.((((((((+)))))))).))))))))))”: 58.9 °C.
The same measure for “CGACGTGCTACATGTGCTG+CAGCACATTTTGCACGTCG ((((((((.(.((((((((+)))))))).).))))))))”: 50.4 °C; for “CGACGTGCGTGATGTGCTG+CAGCACATCCGGCACGTCG ((((((((..(((((((((+)))))))))..))))))))”: 55.7 °C; for “CGACGTGCTGGATGTGCTG+CAGCACATGCTGCACGTCG ((((((((.(.((((((((+)))))))).).))))))))”: 54.8 °C.
To “CGACGTGCAATATGTGCTG+CAGCACATCGTGCACGTCG (((((((((..((((((((+))))))))..)))))))))” belongs 45.9 °C; to “CGACGTGCACAATGTGCTG+CAGCACATCACGCACGTCG ((((((((...((((((((+))))))))...))))))))”, 45.3 °C.
Turning to “CGACGTGCGCTATGTGCTG+CAGCACATGTAGCACGTCG ((((((((...((((((((+))))))))...))))))))”, the Tm was 52.5 °C.
To “CGACGTGCGCTATGTGCTG+CAGCACATACAGCACGTCG ((((((((..(((((((((+)))))))))..))))))))” belongs 52.1 °C.
